This is an account of results in US20040077045A1 (LUDWIG INSTITUTE FOR CANCER RESEARCH, published 2004).

Bounds are passed on as bounds.

The target of assay [1] is T1, HLA-DR11 (DRB1*1101), purified (human).
T1 construct: mature
Kind of assay: competition on purified HLA-DR (DRB1*1101) against biotinylated HA 306-318 (20 nM, pH 5); fluorescence assay.

The target in assay [2] is HLA-DRB4, purified (human). Kind of assay: competition on purified HLA-DR (DRB4); labelled peptide not named; fluorescence assay.
The target of assay [3] is T2, HLA-DRB5 (DRB5*0101), purified (human).
T2 construct: mature
Kind of assay: competition on purified HLA-DR (DRB5*0101); ratio to reference peptide HA 306-318.

Assay [4] has as its target T3, HLA-DR7 (DRB1*0701), purified (human).
T3 construct: mature
Nature of the assay: competition on purified HLA-DR (DRB1*0701); ratio to reference peptide YKL.

Assay [5] concerns the target T4, HLA-DR1 (DRB1*0101), purified (human).
T4 construct: mature
Kind of assay: competition on purified HLA-DR (DRB1*0101) against biotinylated HA 306-318 (1 nM, pH 6); fluorescence assay.

The target in assay [6] is T5, HLA-DR13 (DRB1*1301), purified (human).
T5 construct: mature
Kind of assay: competition on purified HLA-DR (DRB1*1301) against biotinylated B1 21-36 (200 nM, pH 4.5); fluorescence assay.

Assay [7] deals with T3, HLA-DR7 (DRB1*0701), purified. Nature of the assay: competition on purified HLA-DR (DRB1*0701) against biotinylated YKL (10 nM, pH 5); fluorescence assay.
For assay [8], the target named is T6, HLA-DR4 (DRB1*0401), purified (human).
T6 construct: mature
Kind of assay: competition on purified HLA-DR (DRB1*0401) against biotinylated HA 306-318 (30 nM, pH 6); fluorescence assay.

Assay [9] addresses T6, HLA-DR4 (DRB1*0401), purified. Kind of assay: competition on purified HLA-DR (DRB1*0401); ratio to reference peptide HA 306-318.
Assay [10] addresses T7, HLA-DR15 (DRB1*1501), purified (human).
T7 construct: mature
Nature of the assay: competition on purified HLA-DR (DRB1*1501) against biotinylated A3 152-166 (10 nM, pH 4.5); fluorescence assay.

Assay [11] concerns the target T4, HLA-DR1 (DRB1*0101), purified. Nature of the assay: competition on purified HLA-DR (DRB1*0101); ratio to reference peptide HA 306-318.
Assay [12] addresses T2, HLA-DRB5 (DRB5*0101), purified. Kind of assay: competition on purified HLA-DR (DRB5*0101) against biotinylated HA 306-318 (5 nM, pH 5.5); fluorescence assay.
Assay [13] has as its target HLA-DRB4, purified (human). Nature of the assay: competition on purified HLA-DR (DRB4); ratio to a reference peptide that is not named.
Assay [14] concerns the target T7, HLA-DR15 (DRB1*1501), purified. Kind of assay: competition on purified HLA-DR (DRB1*1501); ratio to reference peptide A3 152-166.
Assay [15] deals with T8, HLA-DR3 (DRB1*0301), purified (human).
T8 construct: mature
Kind of assay: competition on purified HLA-DR (DRB1*0301) against biotinylated MT 2-16 (100 nM, pH 4.5); fluorescence assay.

Assay [16] concerns the target T1, HLA-DR11 (DRB1*1101), purified. Nature of the assay: competition on purified HLA-DR (DRB1*1101); ratio to reference peptide HA 306-318.
For assay [17], the target named is T9, HLA-DRB3 (DRB3*0101), purified (human).
T9 construct: mature
Nature of the assay: competition on purified HLA-DR (DRB3*0101) against biotinylated LOL 191-210 (5 nM, pH 5.5); fluorescence assay.

B1: peptide MAGE-3 267-282 (ACYEFLWGPRALVETS) (peptide)
peptide: ACYEFLWGPRALVETS
With B1, the IC50 (commonly the concentration at which inhibition is half-maximal) in assay [1] was 150 nM; with HLA-DRB4, purified [2] it was 2800 nM; in [5], 0.4 nM; in assay [6], > 10000 nM; in assay [7] it was 1200 nM; in [8], 730 nM. Also, the IC50 in assay [10] is 220 nM; in [12], 170 nM; in assay [15], > 10000 nM; in assay [17] it was > 10000 nM. In addition, the “Ratios IC50 MAGE-3/IC50 reference” value in assay [3] is 11; in assay [4] it was 120; in assay [9], 18; in [11] it was 0.2; with HLA-DRB4, purified [13] it was 70; in assay [14] it was 15. For the same molecule, the “Ratios IC50 MAGE-3/IC50 reference” value in assay [16] was found to be 6.
